# In PMC8653789:
# Tests used:
# Assay in all cases: AlphaScreen or HTRF
# [1] = molecular target: H3K4me2/H4K12ac nucleosome (UniProt P04908)
# [2] = molecular target: H3K4me1/H4K12ac nucleosome (UniProt P04908)
# [3] = molecular target: H3K4me3/H4K12ac nucleosome (UniProt P04908)
fold reduction of binding relative to wild type [1] [fold],fold reduction of binding relative to wild type [2] [fold],fold reduction of binding relative to wild type [3] [fold],Substance
> 4,> 4,,PHIP Tudor–BD1–BD2 R1310C (from UniProt Q8WWQ0 940-1434) (domain or fragment)
> 10,> 10,> 10,PHIP Tudor–BD1–BD2 R1402S (from UniProt Q8WWQ0 940-1434) (domain or fragment)
> 3,> 3,,PHIP Tudor–BD1–BD2 W1156L (from UniProt Q8WWQ0 940-1434) (domain or fragment)
